Data from publication PMC12377726 (Proceedings of the National Academy of Sciences of the …, 2025).

Target: eOD-GT8 (engineered outer domain germline-targeting version 8), monomer (HIV-1 gp120 engineered outer domain, …)

Binder	binding result
G001_gp1_V06_VRC01c_2021-0027 (antibody, V domains shown) VH: not shown VL: QSVLTQPPSVSGAPGQRVTISCTGSSSNIGAGYDVHWYQQLPGTAPKLLIYGNSNRPSGVPDRFSGSKSGTSASLAITGLQAEDEADYYCQSYEVFGGGTKLTVL	binds
G001_gp1_V06_VRC01c_2021-0007 (antibody, V domains shown) VH: QVQLVQSGAEVKKPGASVKVSCKASGYTFTGSYMHWVRQAPGQGLEWMGWINPNSGGTNYAQKFQGWVTMTRDTSISTAYMELSRLRSDDTAVYYCATASSGSYYWYFDLWGRGTLVTVSS VL: EIVMTQSPATLSVSPGERATLSCRASQSVSSNLAWYQQKPGQAPRLLIYGASTRATGIPARFSGSGSGTEFTLTISSLQSEDFAVYYCQQYETFGQGTKVEIK	binds
G001_gp1_V06_VRC01c_2021-0022 (antibody, V domains shown) VH: not shown VL: EIVMTQSPATLSVSPGERATLSCRASQSVSSNLAWYQQKPGQAPRLLIYGASTRATGIPARFSGSGSGTEFTLTISSLQSEDFAVYYCQQYNNFGQGTRLEIK	binds
G001_gp1_V06_VRC01c_2021-0012 (antibody, V domains shown) VH: not shown VL: EIVMTQSPATLSVSPGERATLSCRASQSFSSNLAWYQQKSGQAPRLLIYGASTRATGIPARFSGSGSGTEFTLTISSLQSEDFAVYYCQQYHTFGPGTKVDIK	binds
G001_gp1_V06_VRC01c_2021-0014 (antibody, V domains shown) VH: not shown VL: EIVMTQSPATLSVSPGERATLSCRASQSVSSNLAWYQQKPGQAPRLLIYGASTRATGIPARFSGSGSGTEFTLTISSLQSEDFAVYYCQQYGTFGQGTKVEIK	binds
G001_gp1_V06_VRC01c_81 (antibody, V domains shown) VH: not shown VL: EIVMTQSPATLCVSPGERATLSCRASQSVSSNLAWYQQKPGQAPRLLIYGASTRATGIPARFSGSGSGTEFTLTISSLQSEDFAVYYCQQYNNFGQGTKVEIK	binds
G001_gp1_V06_VRC01c_82 (antibody, V domains shown) VH: not shown VL: EIVMTQSPATLSVSPGERATLSCRASQSVSSNLAWYQQKPGQAPRLLIYGASTRATGIPARFSGSGSGTEFTLTISSLQSEDFAVYYCQQYETFGGGTKVEIK	binds
G001_gp1_V06_VRC01c_76 (antibody, V domains shown) VH: QVHLVQSGAEVKKPGASVKVSCKASEYTFSDYYMHWVRQAPGQGLEWMGWINPNSGGTNYAQKFQGRVTMTRDTSISTAYMELSRLRSDDTAVYYCATRGTGRYSYGSGTFYDYWGQGTLVTVSS VL: not shown	binds
G001_LD_V05_VRC01c_17 (antibody, V domains shown) VH: not shown VL: DIQMTQSPSSLSASVGDRVTITCQASQDISNYLNWYQQKPGKAPKLLIYDASNLETGVPSRFSGSGSGTDFTFTISSLQPEDIATYYCQQYEFFGGGTKVEIK	binds
G001_gp1_V06_VRC01c_2021-0004 (antibody, V domains shown) VH: not shown VL: DIQMTQSPSSLSASVGDRVTITCQASQDISNYLNWYQQKPGKAPKLLIYDASNLETGVPSRFSGSGSGTDFTFTISSLQPEDIATYYCQQYNTFGGGTKVEIK	binds
G001_gp1_V06_VRC01c_2021-0008 (antibody, V domains shown) VH: not shown VL: DIQMTQSPSSLSASVGDRVTITCQASQDISNYLNWYQQKPGKAPKLLIYDASNLQTGVPSRFSGSGSGTDFTFTISSLQPEDIATYYCQQYDFFGGGTKVEIK	binds
G001_gp1_V06_VRC01c_2021-0020 (antibody, V domains shown) VH: not shown VL: DIQMTQSPSSLSASVGDRVTITCQASQDISNFLNWFQQKPGKAPKLLIYDASNLETGVPSRFSGSGSGTDFTFTISSLQPEDIATYYCQQYDNFGPGTKVDIK	binds
G001_LD_V05_VRC01c_20 (antibody, V domains shown) VH: not shown VL: DIQMTQSPSSLSASVGDRVTITCQASQDISNYLNWYQQKPGKAPKLLIYDASNLETGVPSRFSGSGSGTDFTFTISSLQPEDIATYYCQQYDFFGGGTKVEIK	binds
G001_gp1_V06_VRC01c_2021-0021 (antibody, V domains shown) VH: QVQLVQSGAEVKKPGASVKVSCKASGYTFTGDYMHWVRQAPGQGLEWMGWINPNSGGTNYAQKFEGWVTMTRDTSISTAYMELSRLRSDDTAVYYCARTPYSSSWLFNYWGQGTLVTVSS VL: DIQMTQSPSSLSASVGDRVTITCQASQDISNFLNWYQQKPGKAPKLLIYDASNLETGVPSRFSGSGSGTNFTFTISSLQPEDIATYYCQQYDLFGPGTKVDIK	binds
G001_LD_V05_VRC01c_30 (antibody, V domains shown) VH: not shown VL: DIQMTQSPSSLSTSVGDRVTITCQASQDITNYLNWYQQKPGKAPKLLIYDASNLETGVPSRFSGSGSGTDFTFTISSLQPEDIATYYCQQYDNFGGGTKVEIK	binds
G001_LD_V05_VRC01c_29 (antibody, V domains shown) VH: not shown VL: DIQMTQSPSSLSASVGDRVTITCQASQDISNYLNWYQQKPGKAPKLLIYDASNLETGVPSRFSGSGSGTDFTFSISSLQPDDIATYYCQQYEGFGPGTKVDIK	binds

Binder	binding result
G001_LD_V05_VRC01c_21 (antibody, V domains shown) VH: not shown VL: DIQMTQSPSSLSASVGDRVTITCQASQDISNYLNWYQQKPGKAPKLLIYDASNLETGVPSRFSGSGSGTDFTFTISILQPEDTATYYCQQYDTFGPGTKVDIK	binds
G001_gp1_V06_VRC01c_2021-0006 (antibody, V domains shown) VH: not shown VL: DIQMTQSPSSLSASVGDRVTITCQASQDINNYLNWYQQKPGKAPKLLIYDASNLETGVPSRFSGSGSGTDFTFTISSLQPEDIATYYCQQYETFGQGTRLEIK	binds
G001_gp1_V06_VRC01c_2021-0010 (antibody, V domains shown) VH: QVQLVQSGAEVKKPGASVKVSCKASGYTFTGYYMQWMRQAPGQGLEWMGWINPNSGGTNYAQKFQGWVTMTRDTSISTVYMELSRLRSDDTAVYYCARGFTNWNLDYWGQGTLVTVSS VL: EIVLTQSPGTLSLSPGERATLSCRASQSVSSSYLAWYQQKPGQAPRLLIYGASSRATGIPDRFSGSGSGTDFTLTISRLEPEDFAMYYCQQYETFGQGTKVEIK	binds
G001_gp1_V06_VRC01c_2021-0026 (antibody, V domains shown) VH: not shown VL: EIVLTQSPGTLSLSPGERATLSCRACQSVSSSYLAWYQQKPGQAPRLLIYGASSRATGIPDRFSGSGSGTDFTLTISRLEPEDFAVYYCQQYETFGQGTKLEIK	binds
G001_gp1_V06_VRC01c_2021-0028 (antibody, V domains shown) VH: not shown VL: EIVLTQSPGTLSLSPGERATLSCRASQSVSGSYLAWYQQKPGQAPRLLIYGSSSRATGIPDRFSGSGSGTDFTLTISRLEPEDFAVYYCQQYETFGQGTKVEIK	binds
G001_gp1_V06_VRC01c_2021-0016 (antibody, V domains shown) VH: QVQLVQSGAEVKKPGASVTVSCKASGYTFTGYYMHWVRQAPGQGLEWMGWINPTSGGTNYGQKFQGRVTMTRDTSISTAYMELSRLRSDDTAVYYCAITTVTSTWAFDIWGQGTMVTVSS VL: EIVLTQSPGTLSLSPGERATLSCRASQSVSNNYLAWYQQTPGQAPRLLIYGASSRATGIPDRFSGSGSGTDFTLTISRLEPEDFAVYYCQQYETFGQGTKVEIK	binds
G001_gp1_V06_VRC01c_2021-0019 (antibody, V domains shown) VH: QVQLVQSGAEVKKPGASVKVSCKASGYTFTGYYMHWVRQAPGQGLEWMGWINPNSGGTNYAQKFQDWVTMTRDTSISTAYMELRRLRSDDTAVYYCARPSYRSGWDMWYWGQGTLVTVSS VL: EIVLTQSPGTLSLSPGERATLSCRASQSVSSSYLAWYQQKPGQAPRLLIYGASSRATGIPDRFSGSGSGTDFTLTISRLEPEDFAVYYCQQYEGFGPGTKVDIK	binds
G001_gp1_V06_VRC01c_2021-0017 (antibody, V domains shown) VH: not shown VL: EIVLTQSPGTLSLSPGERATLSCRASQSVSSSYLAWYQQKPGQAPRLLIYGASSRATGIPDRFSGSGSGTDFTLTISRLEPEDFAVYYCQQYEFFGPGTKVDIK	binds
G001_gp1_V06_VRC01c_2021-0011 (antibody, V domains shown) VH: QVQLVQSGAEVKKPGASVKVSCKASGYTFTGYYLHWVRQAPGQGLEWMGWINPNSGGTNYAQKFQGWVTMTRDTSISTAYMELSRLRSDDTAVYYCAVKDLDTMVRGGAFVFWGQGTMVTVSS VL: DIQLTQSPSFLSASVGDRVTITCRASQGISSYLAWYQQKPGKAPKLLIYAASTLQSGVPSRFSGSGSGTEFTLTISSLQPEDFATYYCQQLNSFGGGTKVEIK	binds
G001_gp1_V06_VRC01c_2021-0023 (antibody, V domains shown) VH: QVQLVQSGAEVKKPGASVKVSCKASGYTFTDYYIHWVRQAPGQGLEWMGWINPNSGGTNYAQKFQDWVTMTRDTSITTAYMELSRLRSDDTAVYYCARGVRYSSSWYFGYWGQGTLVTVSS VL: QSALTQPASVSGSPGQSITISCTGTSSDVGGYNYVSWYQQHPGKAPKLMIYDVSNRPSGVSNRFSGSKSGNTASLTISGLQTEDEADYYCSSYEVFGTGTKVTVL	binds
G001_gp1_V06_VRC01c_79 (antibody, V domains shown) VH: not shown VL: EIVLTQSPGTLSLSPGERATLSCRASQSSSHLAWYQQKHGQAPRLLIYGASSRATGIPDRFSGSGSGTDFTLTISRLEPEDFAVYHCQQYETFGQGTKVEIK	binds
G001_gp1_V06_VRC01c_2021-0005 (antibody, V domains shown) VH: not shown VL: DIQMTQSPSTLSASVGDRVTITCRASQSISSWLAWYQQKPGKAPKLLIYKASSLESGVPSRFSGSGSGTEFTLTISSLQPDDFATYYCQQYETFGQGTKVEIK	binds
G001_gp1_V06_VRC01c_2021-0015 (antibody, V domains shown) VH: not shown VL: DIQMTQSPSTLSASVGDRVTITCRASQSISSWLAWYQQKPGKAPKLLIYKASSLESGVPSRFSGSGSGTEFTLTISSLQPDDFATYYCQQWETFGQGTKVEIK	binds
G001_gp1_V06_VRC01c_2021-0018 (antibody, V domains shown) VH: not shown VL: DIQMTQSPSTLSASVGDRVTITCRASQSISSWLAWYQQKPGKAPKLLIYKASSLESGVPSRFSGSGSGTEFTLTISSLQPDDFATYYCQQYETFGQGTKVEIK	binds
G001_gp1_V06_VRC01c_2021-0030 (antibody, V domains shown) VH: not shown VL: DIQMTQSPSTLSASVGDRVTITCRASQSISSWLAWYQQKPGKAPKLLIYKASSLESGVPSRFSGSGSGTEFTLTISSLQPDDFATYYCQQYATFGQGTKVEIK	binds
G001_gp1_V06_VRC01c_2021-0003 (antibody, V domains shown) VH: QVQLVQSGAEVKKPGASVKVSCKASGYTFTGYYIHWVRQAPGQGLEWMGWINPNSGGTNYAQKFQGWVTMTRDTSISTAYMELRRLRSDDTAVYYCARVKDYYDSIGGWYFDLWGRGTLVTVSS VL: not shown	binds
